We go through 16 molecules from patent US20190038721A1 (Novo Nordisk, published 2019).

Starred links: 1 amine or outer side, 2 acyl side, 3 side chain; linkers in the order of their positions; H or OH if unused. Non-standard residues stand in square brackets, D forms with d. Groups on a side chain read outwards from the residue. No end group written: not given here. *: point of attachment. 2‑(bis(3-aminopropyl)amino)acetyl = branch point, each 3-aminopropyl arm carries one of the two bracketed chains; 4‑(aminomethyl)cyclohexanecarbonyl = 4-(aminomethyl)cyclohexanecarbonyl linker unit; Undecanoyl(11-OPh(4-COOH)) = O=C(O)c1ccc(OCCCCCCCCCCC(=O)*)cc1; Decanoyl(10-(4-HOOC-PhO)) = O=C(O)c1ccc(OCCCCCCCCCC(=O)*)cc1; Decanoyl(10-O(3-COOH-Ph)) = O=C(O)c1cccc(OCCCCCCCCCC(=O)*)c1; C20 diacid = O=C(O)CCCCCCCCCCCCCCCCCCC(=O)*; γGlu = O=C(O)[C@H](CCC(=O)[*:2])N[*:1]; C14 diacid = O=C(O)CCCCCCCCCCCCC(=O)*; Palmitoyl = CCCCCCCCCCCCCCCC(=O)*; AEEA = NCCOCCOCC(=O)O; Aib = CC(C)(N)C(=O)O

Assay [1] deals with T1, human GLP-1 receptor (human, UniProt P43220 24-463). Description: cell-based or functional assay.
The target of assay [2] is T1, human GLP-1 receptor. Description: competitive binding (SPA), displacement of 125I-GLP-1(7-36)NH2 from membranes with human GLP-1 receptor, high HSA (2.0% w/v). The protocol:
(§1) 1. For the receptor binding assay in the presence of low HSA (0.005% (w/v)) 50 μl of the assay buffer was added to each well of an assay plate. Assay continued with step 3. 2. For the receptor binding assay in the presence of high HSA (2% (w/v)) 50 μl of the 8% (w/v) albumin stock was added to each well of an assay plate. Assay continued with step 3. 3. […] 4. Cell membrane aliquots were thawed and diluted to their working concentration. Fifty μl were added to each well in the assay plate. 5. WGA SPA beads were suspended in assay buffer at 20 mg/ml. The suspension was diluted to 10 mg/ml in assay buffer just prior to addition to the assay plate. Fifty μl were added to each well in the assay plate. 6. […] A 25 μl aliquot was reserved for measuring total counts/well. 7. The assay plate was incubated for 2 h at 30° C. 8. The assay plate was centrifuged for 10 min. 9. The assay plate was read in a Packard TopCount NXT instrument.
(§2) Individual replicates were analysed using non-linear regression in GraphPad Prism.

The target in assay [3] is T1, human GLP-1 receptor. The experiment in a line: competitive binding (SPA), displacement of 125I-GLP-1(7-36)NH2 from membranes with human GLP-1 receptor, low HSA. The protocol:
as §1, §2
Background: Displacement assays read how much labelled ligand stays bound in the presence of the test substance.

B1: Comparative Example 11A (Example 10 of WO 2016/083499) (peptide)
chain: H[Aib]EGTFTSDVSSYLEEQAAREFIAWLVRGRPK
modifications: also: Lys32 acylated as, structure not given here
In the case of B1, the “EC50 (pM), in vitro potency, CRE luciferase reporter gene assay in BHK cells” value (shortened to “EC50 (pM), in vitro potency”) in the assay with human GLP-1 receptor [1] was found to be 12.5 pM. The figures for the IC50 with human GLP-1 receptor [2] and with human GLP-1 receptor [3] were 34.4 nM and 0.401 nM, respectively.

B2: Comparative Example 3A (Example 31 of WO 2012/140117) (peptide)
chain: H[Aib]EGTFTSDVSSYLEEQAARKFIEWLVRGKGEG
modifications: not fully specified (residues 21, 30); also: Lys21 and Lys30 acylated as, structure not given here
As to B2, the “EC50 (pM), in vitro potency” value in the assay with human GLP-1 receptor [1] stood at 0.53 pM. In addition, the IC50 stood at 134 nM with human GLP-1 receptor [2] and 0.26 nM with human GLP-1 receptor [3].

B3: N{Epsilon-27}-[2-[2-[2-[[2-[2-[2-[[(4S)-4-carboxy-4-[10-(4-carboxyphenoxy)decanoylamino]butanoyl]amino]ethoxy]ethoxy]acetyl]amino]ethoxy]ethoxy]acetyl],N{Epsilo … (peptide)
peptide: HWEGTFTSDVSSYLEEQAARK([AEEA-AEEA-γGlu-Decanoyl(10-(4-HOOC-PhO))])FIEWLVRGK([AEEA-AEEA-γGlu-Decanoyl(10-(4-HOOC-PhO))])GEG
In the case of B3, in the assay with human GLP-1 receptor [1], the “EC50 (pM), in vitro potency” value turned out to be 2.7 pM. The IC50 with human GLP-1 receptor [2] was 84.9 nM; with human GLP-1 receptor [3], 1.03 nM.

B4: Comparative Example 9A (Example 3 of WO 2015/000942) (peptide)
chain: H[Aib]EGTFTSDVSSYLEEQAAREFIAWLVRGRGKGGSK
modifications: also: the two extension Lys residues acylated as in the compound
As to B4, in the assay with human GLP-1 receptor [1], the “EC50 (pM), in vitro potency” value is 41.3 pM. For the same molecule, the IC50 in the assay with human GLP-1 receptor [2] came to 235 nM; in the assay with human GLP-1 receptor [3], 1.04 nM.

B5: N{Epsilon-26}-[2-[2-[2-[[2-[2-[2-[[(4S)-4-carboxy-4-[10-(4-carboxyphenoxy)decanoylamino]butanoyl]amino]ethoxy]ethoxy]acetyl]amino]ethoxy]ethoxy]acetyl],N{Epsilo … (peptide)
peptide: HWEGTFTSDVSSYLEGQAAK([AEEA-AEEA-γGlu-Decanoyl(10-(4-HOOC-PhO))])EFIAWLVRGRK([AEEA-AEEA-γGlu-Decanoyl(10-(4-HOOC-PhO))])
On to B5, for which, in the assay with human GLP-1 receptor [1], the “EC50 (pM), in vitro potency” value was found to be 30 pM. Moreover, the IC50 with human GLP-1 receptor [2] is 771 nM; with human GLP-1 receptor [3], 6.23 nM.

B6: N{Epsilon-36}-[2-[2-[2-[[2-[2-[2-[[2-[2-[2-[[2-[2-[2-[[(4S)-4-carboxy-4-(13-carboxytridecanoylamino)butanoyl]amino]ethoxy]ethoxy]acetyl]amino]ethoxy]ethoxy]acet … (peptide)
peptide: HWEGTFTSDVSSYLEEQAAREFIAWLVRGK([AEEA-AEEA-AEEA-AEEA-γGlu-C14 diacid])K([AEEA-AEEA-AEEA-AEEA-γGlu-C14 diacid])
Turning to B6, the IC50 with human GLP-1 receptor [3] came out at 0.55 nM.

B7: N{Epsilon-26}-[(4S)-4-carboxy-4-(hexadecanoylamino)butanoyl]-[Trp8,Arg34]-GLP-1-(7-37)-peptide (peptide)
peptide: HWEGTFTSDVSSYLEGQAAK([γGlu-Palmitoyl])EFIAWLVRGRG
On to B7, for which the “EC50 (pM), in vitro potency” value with human GLP-1 receptor [1] was determined as 21 pM.

B8: N{Epsilon-37}-[2-[2-[2-[[2-[2-[2-[[(2)-2,6-bis[[2-[2-[2-[[2-[2-[2-[[2-[2-[2-[[2-[2-[2-[[(4S)-4-carboxy-4-[[4-[(19-carboxynonadecanoylamino)methyl]cyclohexanecar … (peptide)
peptide: HWEGTFTSDVSSYLEEQAAREFIAWLVRGRK([AEEA-AEEA-2,6‑diaminohexanoyl-AEEA-AEEA-AEEA-AEEA-γGlu-4‑(aminomethyl)cyclohexanecarbonyl-C20 diacid)+(AEEA-AEEA-AEEA-AEEA-γGlu-4‑(aminomethyl)cyclohexanecarbonyl-C20 diacid])
notes: the claim prints (2S)-2,6-bis; also called 12
As for B8, the “EC50 (pM), in vitro potency” value with human GLP-1 receptor [1] is 62.9 pM. In the assay with human GLP-1 receptor [2], this molecule gave an IC50 of 51.8 nM.

B9: N{Epsilon-36}-[2-[2-[2-[[2-[2-[2-[[(4S)-4-carboxy-4-[10-(3-carboxyphenoxy)decanoylamino]butanoyl]amino]ethoxy]ethoxy]acetyl]amino]ethoxy]ethoxy]acetyl],N{Epsilo … (peptide)
peptide: HWEGTFTSDVSSYLEEQAAREFIAWLVRGK([AEEA-AEEA-γGlu-Decanoyl(10-O(3-COOH-Ph))])K([AEEA-AEEA-γGlu-Decanoyl(10-O(3-COOH-Ph))])
In turn, B9 showed an IC50 in the assay with human GLP-1 receptor [3] of 0.405 nM.

B10: N{Epsilon-36}-[2-[2-[2-[[2-[2-[2-[[(4S)-4-carboxy-4-[11-(4-carboxyphenoxy)undecanoylamino]butanoyl]amino]ethoxy]ethoxy]acetyl]amino]ethoxy]ethoxy]acetyl],N{Epsi … (peptide)
peptide: HWEGTFTSDVSSYLEEQAAREFIAWLVRGK([AEEA-AEEA-γGlu-Undecanoyl(11-OPh(4-COOH))])K([AEEA-AEEA-γGlu-Undecanoyl(11-OPh(4-COOH))])
With B10, the IC50 with human GLP-1 receptor [3] turned out to be 0.535 nM. This IC50 and that of the molecule before are within 1.5-fold of each other.

B11: [Gly8]-GLP-1-(7-37)-peptide (peptide)
peptide: HGEGTFTSDVSSYLEGQAAKEFIAWLVKGRG
For B11, the “EC50 (pM), in vitro potency” value with human GLP-1 receptor [1] worked out at 32 pM. The IC50 with human GLP-1 receptor [2] stood at 0.62 nM; with human GLP-1 receptor [3], 2.64 nM.

B12: [Trp8]-GLP-1-(7-37)-peptide (peptide)
peptide: HWEGTFTSDVSSYLEGQAAKEFIAWLVKGRG
notes: also called 8W GLP-1(7-37)
As for B12, the “EC50 (pM), in vitro potency” value with human GLP-1 receptor [1] turned out to be 12 pM. In addition, the IC50 was 0.208 nM with human GLP-1 receptor [2] and 0.67 nM in the assay with human GLP-1 receptor [3].

B13: N{Epsilon-37}-[(2S)-2,6-bis[[2-[2-[2-[[2-[2-[2-[[2-[2-[2-[[2-[2-[2-[[2-[2-[2-[[2-[2-[2-[[(4S)-4-carboxy-4-[[4-[(19-carboxynonadecanoylamino)methyl]cyclohexaneca … (peptide)
peptide: HWEGTFTSDVSSYLEEQAAREFIAWLVRGRK([Lys-AEEA-AEEA-AEEA-AEEA-AEEA-AEEA-γGlu-4‑(aminomethyl)cyclohexanecarbonyl-C20 diacid)+(AEEA-AEEA-AEEA-AEEA-AEEA-AEEA-γGlu-4‑(aminomethyl)cyclohexanecarbonyl-C20 diacid])
notes: also called 10
On to B13, for which, in the assay with human GLP-1 receptor [1], the “EC50 (pM), in vitro potency” value turned out to be 31.2 pM. The same molecule showed an IC50 with human GLP-1 receptor [2] of 123 nM.

B14: N{Epsilon-37}-[2-[2-[2-[[2-[2-[2-[[2-[bis[3-[[2-[2-[2-[[2-[2-[2-[[2-[2-[2-[[2-[2-[2-[[(4 … (peptide)
peptide: HWEGTFTSDVSSYLEEQAAREFIAWLVRGRK([AEEA-AEEA-2‑(bis(3-aminopropyl)amino)acetyl-AEEA-AEEA-AEEA-AEEA-γGlu-4‑(aminomethyl)cyclohexanecarbonyl-C20 diacid)+(AEEA-AEEA-AEEA-AEEA-γGlu-4‑(aminomethyl)cyclohexanecarbonyl-C20 diacid])
notes: also called 13
As to B14, in the assay with human GLP-1 receptor [1], the “EC50 (pM), in vitro potency” value amounted to 32.1 pM. The same molecule returned an IC50 in the assay with human GLP-1 receptor [2] of 71.6 nM.

B15: [Pro8,Glu22,Arg26]-GLP-1-(7-37)-peptide (peptide)
peptide: HPEGTFTSDVSSYLEEQAAREFIAWLVKGRG
Take B15: the “EC50 (pM), in vitro potency” value in the assay with human GLP-1 receptor [1] amounted to 0.57 pM. Also, the IC50 in the assay with human GLP-1 receptor [2] stood at 0.035 nM; with human GLP-1 receptor [3] it was 0.075 nM.

B16: N{Alpha}([Trp8,Glu22,Arg26,Arg34]-GLP-1-(7-37)-peptidyl)-N{Epsilon}[2-[2-[2-[[2-[2-[2-[[(4S)-4-carboxy-4-[[4-[(19-carboxynonadecanoylamino)methyl]cyclohexanecar … (peptide)
peptide: HWEGTFTSDVSSYLEEQAAREFIAWLVRGRGK([AEEA-AEEA-γGlu-4‑(aminomethyl)cyclohexanecarbonyl-C20 diacid])GGSK([AEEA-AEEA-γGlu-4‑(aminomethyl)cyclohexanecarbonyl-C20 diacid])
As for B16, the “EC50 (pM), in vitro potency” value in the assay with human GLP-1 receptor [1] is 70.5 pM. Besides, the IC50 in the assay with human GLP-1 receptor [2] came to 305 nM.

As usually defined, the IC50 is the midpoint of a concentration-inhibition curve. A higher IC50 goes with weaker potency in that assay.
